# Results published in patent US9540424B2, “Serum albumin binding molecules” (BRISTOL-MYERS SQUIBB COMPANY, priority 2010, dated 2017).
# B1: SABA1-FGF21v1: SABA1-FGF21 fusion, SEQ ID NO: 132; 293 aa; DNA SEQ ID NO: 184 (protein)
# chain: MGVSDVPRDLEVVAATPTSLLISWHSYYEQNSYYRITYGETGGNSPVQEFTVPYSQTTATISGLKPGVDYTITVYAVYGSKYYYPISINYRTEIEKPSQGSGSGSGSGSGSGSPIPDSSPLLQFGGQVRQRYLYTDDAQQTEAHLEIREDGTVGGAADQSPESLLQLKALKPGVIQILGVKTSRFLCQRPDGALYGSLHFDPEACSFRELLLEDGYNVYQSEAHGLPLHLPGNKSPHRDPAPRGPARFLPLPGLPPALPEPPGILAPQPPDVGSSDPLSMVGPSQGRSPSYAS
# Biological target: T1, CySA (Macaca fascicularis, UniProt A2V9Z4)
# T1 construct: purchased Equitech-Bio CMSA
# Test: SPR (Biacore T100) kinetics of FGF21-SABA1 fusions: CySA
# Format: binding, cynomolgous monkey
# Details: flow rate 30 μl/min
# Description: The binding competency and thermodynamic characterization of FGF21-SABA fusion variants to human serum albumin were performed using Isothermal Titration calorimetry on a Microcal VP-ITC instrument (Microcal Inc. Amherst Mass., USA). […] The detailed experimental conditions are described below.
# For the calorimetry assay, the FGF21-SABA variant SABA1-FGF21v1 (SEQ ID NO: 132) was used. […] For the SPR studies, SABA1-FGF21v1 and SABA1-FGF21v3 (SEQ ID NO: 134) were examined.
# Serum albumins were dissolved in PBS buffer (10 mM sodium phosphate, 130 mM sodium chloride, pH 7.1) to a concentration of 10 mg/ml, and subsequently diluted to 8-10 μg/ml in 10 mM sodium acetate pH 5.0 for immobilization. Serum albumins were immobilized on a Series S CMS sensor chip using standard ethyl(dimethylaminopropyl) carbodiimide (EDC)/N-hydroxysuccinimide (NHS) chemistry in HBS-EP+ running buffer at 25° C., following general manufacturer guidelines. Flow cell 1 was activated with EDC/NHS and blocked with ethanolamine. […] Kinetic experiments were performed in PBS buffer containing 0.05% tween-20 (running buffer) at either 25° C. or 37° C. […] These samples were injected across flow cells 1-4 for 300 s, with a 420 s dissociation time, at flow rates of 30 μl/min or 60 μl/min to check for mass transfer limitation. All surfaces were regenerated with 2 pulses of 10 mM glycine pH 2.0 at 30 μl/min for 30 s. Raw sensograms were “double-referenced” by subtracting flow cell 1 data from flow cell 2, 3 or 4 data, and then subtracting a separate buffer cycle from each sensogram. The double-referenced sensogram data was fitted to a 1:1 Langmuir model using Biacore T100 Evaluation software version 2.0.2 to determine the association rate constant (ka), the dissociation rate constant (kd), and the equilibrium dissociation constant (KD).
# T1 sequence (A2V9Z4 25-608): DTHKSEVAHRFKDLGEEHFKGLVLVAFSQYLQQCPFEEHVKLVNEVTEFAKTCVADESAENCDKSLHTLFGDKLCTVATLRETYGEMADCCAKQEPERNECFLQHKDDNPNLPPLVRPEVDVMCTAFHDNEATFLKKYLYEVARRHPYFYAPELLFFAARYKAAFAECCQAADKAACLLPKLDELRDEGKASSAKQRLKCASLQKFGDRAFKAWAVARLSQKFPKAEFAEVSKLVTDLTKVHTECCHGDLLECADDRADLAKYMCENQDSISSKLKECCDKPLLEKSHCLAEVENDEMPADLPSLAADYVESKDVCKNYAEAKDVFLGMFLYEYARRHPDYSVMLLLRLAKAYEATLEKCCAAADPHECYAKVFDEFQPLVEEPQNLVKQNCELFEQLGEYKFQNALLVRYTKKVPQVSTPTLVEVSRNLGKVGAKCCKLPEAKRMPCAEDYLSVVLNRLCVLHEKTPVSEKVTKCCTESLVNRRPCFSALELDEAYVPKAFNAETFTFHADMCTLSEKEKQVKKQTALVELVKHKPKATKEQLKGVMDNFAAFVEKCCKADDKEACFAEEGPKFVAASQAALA
molecule,measurement,setting,value
B1,ka,25° C.,3930 M⁻¹ s⁻¹
same,kd,25° C.,0.0047 s⁻¹
same,ka,37° C.,4440 M⁻¹ s⁻¹
same,kd,37° C.,0.0123 s⁻¹
